The target in experiment [1] is Undamaged nucleosome core particle (Cy3-labeled human histone octamer on 191 bp Widom 601 DNA) (human) (UniProt P62807). Put plainly: single-molecule fluorescence with optical tweezers.
For experiment [2] the target is unchanged. Put plainly: single-molecule fluorescence with optical tweezers. The source holds these as a separate data set.

Read-outs that look alike come from different tables or passages of the source.

Sequence of YFP-PARP1 (poly(ADP-ribose) polymerase 1, wild type) (P09874 whole entry): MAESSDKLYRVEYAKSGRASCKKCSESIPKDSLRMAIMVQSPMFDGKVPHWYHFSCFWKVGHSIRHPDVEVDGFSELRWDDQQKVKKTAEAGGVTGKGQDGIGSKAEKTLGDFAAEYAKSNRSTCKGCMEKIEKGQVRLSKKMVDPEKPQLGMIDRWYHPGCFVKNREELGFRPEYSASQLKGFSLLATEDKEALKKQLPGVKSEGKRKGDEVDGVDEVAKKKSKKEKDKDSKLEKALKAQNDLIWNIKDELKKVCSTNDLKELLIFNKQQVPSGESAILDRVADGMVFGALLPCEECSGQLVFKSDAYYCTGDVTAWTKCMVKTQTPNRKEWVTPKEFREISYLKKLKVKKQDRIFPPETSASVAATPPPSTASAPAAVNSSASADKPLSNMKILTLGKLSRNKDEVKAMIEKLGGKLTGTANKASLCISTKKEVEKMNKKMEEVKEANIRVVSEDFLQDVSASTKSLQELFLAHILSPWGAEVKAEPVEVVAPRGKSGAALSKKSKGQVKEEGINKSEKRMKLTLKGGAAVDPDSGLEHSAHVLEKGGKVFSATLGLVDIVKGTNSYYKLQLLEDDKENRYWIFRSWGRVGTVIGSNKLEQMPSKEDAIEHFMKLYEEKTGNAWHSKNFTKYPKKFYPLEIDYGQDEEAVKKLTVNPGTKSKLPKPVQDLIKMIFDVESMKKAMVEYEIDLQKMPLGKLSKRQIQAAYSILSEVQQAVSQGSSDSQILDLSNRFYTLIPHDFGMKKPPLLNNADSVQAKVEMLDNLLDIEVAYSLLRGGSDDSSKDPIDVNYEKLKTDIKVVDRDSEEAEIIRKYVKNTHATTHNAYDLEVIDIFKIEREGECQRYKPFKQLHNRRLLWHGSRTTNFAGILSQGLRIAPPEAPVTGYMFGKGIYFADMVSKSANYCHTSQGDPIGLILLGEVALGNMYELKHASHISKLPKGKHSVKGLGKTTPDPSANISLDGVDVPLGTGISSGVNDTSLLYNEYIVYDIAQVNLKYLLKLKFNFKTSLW

In experiment [1], “HaloTag-PARP1 H862A/Y896A/E988A (catalytically dead PARP1) (from UniProt P09874 1-1014) (enzyme)” showed a lifetime of 56 s.
By Kd is commonly meant the concentration at which binding is half-saturated. As to “YFP-PARP1 (poly(ADP-ribose) polymerase 1, wild type) (from UniProt P09874 1-1014) (enzyme)”, the Kd in experiment [2] amounted to 1 nM. For the same substance, in experiment [1], the equilibrium dissociation constant (Kd) amounted to 10.2 nM and the lifetime worked out at 2.5 s.

For the origin of these results see publication PMC12796238.
